Measured values: PMC12048566

Target: T1, GST-OsARF24 (Oryza sativa (rice), UniProt Q2QQX6 1-841)
T1 sequence: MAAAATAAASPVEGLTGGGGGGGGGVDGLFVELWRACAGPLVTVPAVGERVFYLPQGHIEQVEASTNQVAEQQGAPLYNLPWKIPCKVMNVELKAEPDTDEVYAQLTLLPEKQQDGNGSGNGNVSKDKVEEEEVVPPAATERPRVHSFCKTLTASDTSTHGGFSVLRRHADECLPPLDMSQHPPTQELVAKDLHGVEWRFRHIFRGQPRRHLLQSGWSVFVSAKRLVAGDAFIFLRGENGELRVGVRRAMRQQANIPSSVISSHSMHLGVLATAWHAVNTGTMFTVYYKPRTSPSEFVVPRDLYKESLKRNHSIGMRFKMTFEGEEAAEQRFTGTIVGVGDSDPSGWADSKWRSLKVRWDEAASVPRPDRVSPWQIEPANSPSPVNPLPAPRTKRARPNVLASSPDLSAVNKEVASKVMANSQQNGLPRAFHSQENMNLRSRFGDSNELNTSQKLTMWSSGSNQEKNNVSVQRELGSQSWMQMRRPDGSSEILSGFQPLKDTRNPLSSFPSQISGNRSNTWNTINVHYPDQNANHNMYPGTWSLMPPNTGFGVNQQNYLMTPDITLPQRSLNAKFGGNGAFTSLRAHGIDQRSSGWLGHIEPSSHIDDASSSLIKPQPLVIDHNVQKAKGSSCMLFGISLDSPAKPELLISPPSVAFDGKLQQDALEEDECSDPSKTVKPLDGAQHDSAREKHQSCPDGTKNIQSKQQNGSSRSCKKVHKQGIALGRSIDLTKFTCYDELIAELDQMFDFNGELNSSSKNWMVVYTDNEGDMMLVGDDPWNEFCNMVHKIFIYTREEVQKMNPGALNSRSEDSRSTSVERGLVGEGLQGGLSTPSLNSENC
Assay: EMSA

B1: ARF probe (OsMAP1/OsMPK3 promoter) (dsDNA)
DNA 1: TCATCGCCTTGCTGTCTCTGCGAATCGAGA
DNA 2: TCTCGATTCGCAGAGACAGCAAGGCGATGA
B1: binds.
